{
  "source": "patent US20250073269A1",
  "about": "(CAS LAMVAC GUANGZHOU BIOMEDICAL TECHNOLOGY, published 2025)",
  "binders": {"B1": {"name": "monoclonal antibody 5H4 (5H4 mAb) (antibody, V domains shown)", "VH": "EVKLVESGGGLVKPGGSLKLSCAASGFTFSNYAMSWVRQSPERRLEWVAEISITGRYTYYPDTVTGRFTISRDNAKNTLYLEMSSLRSEDTAMYYCTREGYDYAPSWFAYWGQGTLVTVSA", "VL": "DVVMTQTPLSLPVSLGDQASISCRSGQTLVHRNGITYLEWYLQKPGQSPKLLIYKVSNRFSGVPDRFSGSGSGTDFTLKISRVEAEDLGIYYCFQGSHVPRTFGGGTKLEIK", "notes": "Mouse monoclonal antibody, detected with anti-mouse IgG; also called mouse anti-rVAR2 protein monoclonal antibody 5H4 mAb"}},
  "key": {"[1]": {"biological_target": "T1, wild-type VAR2CSA recombinant protein (rVAR2) (Plasmodium)", "T1 construct": "Monomer of about 73.1 kDa including the tag, with no intra- or intermolecular coupling; Prepared as in CN110325551B; also called rVAR2 protein; monomeric VAR2CSA recombinant protein", "T1 chain": "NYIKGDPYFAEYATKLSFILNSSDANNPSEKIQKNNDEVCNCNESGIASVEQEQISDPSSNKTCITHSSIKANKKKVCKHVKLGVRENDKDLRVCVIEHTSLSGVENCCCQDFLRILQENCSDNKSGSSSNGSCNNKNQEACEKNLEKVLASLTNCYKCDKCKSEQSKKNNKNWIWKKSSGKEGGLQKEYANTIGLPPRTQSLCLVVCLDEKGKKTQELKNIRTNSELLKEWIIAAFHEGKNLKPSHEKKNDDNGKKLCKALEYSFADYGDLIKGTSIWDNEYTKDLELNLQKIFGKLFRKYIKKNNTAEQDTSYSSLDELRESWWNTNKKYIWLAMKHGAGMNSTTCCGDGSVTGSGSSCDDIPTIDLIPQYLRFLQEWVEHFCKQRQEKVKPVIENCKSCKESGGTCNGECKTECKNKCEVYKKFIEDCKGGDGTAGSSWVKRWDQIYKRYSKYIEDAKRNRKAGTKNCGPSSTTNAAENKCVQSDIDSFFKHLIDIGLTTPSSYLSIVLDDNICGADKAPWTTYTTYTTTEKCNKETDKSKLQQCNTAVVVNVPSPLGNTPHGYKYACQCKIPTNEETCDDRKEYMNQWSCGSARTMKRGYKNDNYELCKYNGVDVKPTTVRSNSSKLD", "assay": "ELISA, rVAR2 coated, 5H4 mAb titrated; single experiment of three (FIG. 11)", "protocol": "(§1) (1) Antigen coating: The AXVB and rVAR2 proteins were diluted to a final concentration of 20 nM with the Na₂CO₃—NaHCO₃ carbonate coating buffer (with a pH of 9.6) which was filtered and sterilized by the 0.22 μm filter membrane, respectively, 100 μL of each protein sample was added to a 96-well Elisa plate (JET BIOFIL, Guangzhou, China, Cat. #FEP101896), with three replicates per protein sample, and the Elisa plate was covered with a sealing film and incubated at 4° C. overnight. […] (2) Antigen blocking: The coating solution in the Elisa plate was removed, the Elisa plate was washed with a PBST solution (1×PBS+0.05% v/v polyoxyethylene sorbitan fatty acid ester, with a pH of 7.2-7.4) three times, the liquid was patted dry, 200 μL of PBST solution containing 5% BSA was added, and the Elisa plate was then incubated at room temperature for 2 hours. […] (3) Primary antibody incubation: The antigen blocking solution was removed, the Elisa plate was washed with the PBST solution three times, and 100 μL of 5H4 mAb at different concentrations which was diluted with an antibody dilution solution (1×PBS containing 0.1% BSA) in different ratios was added to each well."}, "[2]": {"biological_target": "T2, catenated VAR2CSA recombinant protein AXVB (Plasmodium, isopeptide bond between SpyTag and SpyCatcher (intra- or intermolecular coupling, cyclization and catenation))", "T2 construct": "also called AXVB protein; AXVB navigator protein", "assay": "ELISA, AXVB coated, 5H4 mAb titrated; single experiment of three", "protocol": "as §1"}, "[3]": {"biological_target": "T2, catenated VAR2CSA recombinant protein …", "assay": "ELISA, AXVB coated at 20 nM, 5H4 mAb titrated, non-linear regression; mean of three experiments"}, "[4]": {"biological_target": "T2, catenated VAR2CSA recombinant protein …", "assay": "ELISA, AXVB coated, 5H4 mAb titrated; single experiment of three (FIG. 10)", "protocol": "as §1"}, "[5]": {"biological_target": "T1, wild-type VAR2CSA recombinant protein …", "assay": "ELISA, rVAR2 coated at 20 nM, 5H4 mAb titrated, non-linear regression; mean of three experiments"}, "[6]": {"biological_target": "T1, wild-type VAR2CSA recombinant protein …", "assay": "ELISA, rVAR2 coated, 5H4 mAb titrated; single experiment of three", "protocol": "as §1"}},
  "note": "“And” between values parts separate entries of the source, which are not always exact repeats. Equal values may be shown once.",
  "data": [
    {"binder": "B1", "values": [
      {"measurement": "Kd", "setting": "[1]", "value": 136, "unit": "nM"},
      {"measurement": "Kd", "setting": "[2]", "value": "73 nM and 100 nM"},
      {"measurement": "Kd", "setting": "[3]", "value": 83.7, "unit": "nM"},
      {"measurement": "Kd", "setting": "[4]", "value": 77.8, "unit": "nM"},
      {"measurement": "Kd", "setting": "[5]", "value": 144, "unit": "nM"},
      {"measurement": "Kd", "setting": "[6]", "value": "123 nM and 174 nM"}
    ]}
  ]
}
